The values below come from patent publication US20220213196A1 (GRITSTONE BIO, published 2022).

Some results are limits rather than exact numbers.

Experiment [1] addresses HLA-A*01:01_… (HLA-PEPTIDE target G10), recombinant soluble complex (human, UniProt P04439-2 25-297; P61769 21-119, enzymatically biotinylated (BirA) for screening and functional assays). The experiment is described as follows: scFv PPE ELISA.
Experiment [2] concerns the target T1, HLA-A*02:01_… (HLA-PEPTIDE target G8), recombinant soluble complex (human, UniProt P04439 25-297 at identity 0.94); P61769 21-119, enzymatically biotinylated (BirA) for screening and functional assays).
T1 construct: Also crystallised with Fab G8-P1C11
As to the kind of experiment: scFv PPE ELISA. In general terms: An ELISA detects its analyte on a solid surface through an enzyme-linked reagent.

B1: scFv R3G10-P1E12 (scFv, V domains shown)
VH: QVQLVQSGAEVKKPGASVKVSCKASGYIFTGYYMHWVRQAPGQGLEWMGMIGPSDGSTSYAQKFQGRVTMTRDTSTSTVYMELSSLRSEDTAVYYCAREDDSMDVWGKGTTVTVSS
VL: not shown
For B1, in experiment [1], the “fold binding to target pHLA over minipool of negative control pHLAs” value (from here on “fold binding to target pHLA”) was no less than 3 fold.

B2: scFv R3G10-P4E12 (scFv, V domains shown)
VH: QVQLVQSGAEVKKPGASVKVSCKASGYTFTGYYMHWVRQAPGQGLEWMGMIGPSDGSTSYAQRFQGRVTMTRDTSTSTVYMELSSLRSEDTAVYYCAREEDGMDVWGQGTTVTVSS
VL: DIQMTQSPSSLSASVGDRVTITCRASQGISTYLAWYQQKPGKAPKLLIYDASSLQSGVPSRFSGSGSGTDFTLTISSLQPEDFATYYCQQYYSYPWTFGQGTRLEIK
Regarding B2, the “fold binding to target pHLA” value in experiment [1] was no less than 3 fold.

B3: scFv G8-P1A06 (scFv, V domains shown)
VH: QVQLVQSGAEVKKPGASVKVSCKASGYTFTNYYMHWVRQAPGQGLEWMGWMNPIGGGTGYAQKFQGRVTMTRDTSTSTVYMELSSLRSEDTAVYYCARVYDFWSVLSGFDIWGQGTLVTVSS
VL: DIQMTQSPSSLSASVGDRVTITCRASQAISNSLAWYQQKPGKAPKLLIYAASTLQSGVPSRFSGSGSGTDFTLTISSLQPEDFATYYCGQSYSTPPTFGQGTKLEIK
On to B3, for which, in experiment [2], the “fold binding to target pHLA” value was no less than 3 fold.

B4: scFv R3G8-P2E04 (scFv, V domains shown)
VH: QVQLVQSGAEVKKPGSSVKVSCKASGGTFSSYGVSWVRQAPGQGLEWMGWISPYSGNTDYAQKFQGRVTITADESTSTAYMELSSLRSEDTAVYYCARGLYYMDVWGKGTTVTVSS
VL: DIQMTQSPSSLSASVGDRVTITCRASQSISSWLAWYQQKPGKAPKLLIYDASNLETGVPSRFSGSGSGTDFTLTISSLQPEDFATYYCQQSYSTPLTFGGGTKLEIK
For B4, the “fold binding to target pHLA” value in experiment [2] is no less than 3 fold.

B5: scFv R3G8-P5F02 (scFv, V domains shown)
VH: QVQLVQSGAEVKKPGASVKVSCKASGYTFTGYYIHWVRQAPGQGLEWMGVINPSGGSTTYAQKLQGRVTMTRDTSTSTVYMELSSLRSEDTAVYYCARDRDSSWTYYYYGMDVWGQGTTVTVSS
VL: EIVMTQSPATLSVSPGERATLSCRASQSVGNSLAWYQQKPGQAPRLLIYGASTRATGIPARFSGSGSGTEFTLTISSLQSEDFAVYYCQQYGSSPYTFGQGTKVEIK
As to B5, the “fold binding to target pHLA” value in experiment [2] is no less than 3 fold.

B6: scFv G8-P1A04 (scFv, V domains shown)
VH: QVQLVQSGAEVKKPGASVKVSCKASGYPFIGQYLHWVRQAPGQGLEWMGIINPSGDSATYAQKFQGRVTMTRDTSTSTVYMELSSLRSEDTAVYYCARDLSYYYGMDVWGQGTTVTVSS
VL: DIQMTQSPSSLSASVGDRVTITCWASQGISSYLAWYQQKPGKAPKLLIYAASSLQSGVPSRFSGSGSGTDFTLTISSLQPEDFATYYCQQSYNTPWTFGPGTKVDIK
For the molecule B6, the “fold binding to target pHLA” value in experiment [2] is no less than 3 fold.

B7: scFv G8-P1D02 (scFv, V domains shown)
VH: EVQLLESGGGLVQPGGSLRLSCAASGFTFSSYWMSWVRQAPGKGLEWVSSISGRGDNTYYADSVKGRFTISRDNSKNTLYLQMNSLRAEDTAVYYCARASGSGYYYYYGMDVWGQGTTVTVSS
VL: DIQMTQSPSSLSASVGDRVTITCQASQDISNYLNWYQQKPGKAPKLLIYAASSLQSGVPSRFSGSGSGTDFTLTISSLQPEDFATYYCQQSYSAPYTFGGGTKVEIK
For the molecule B7, the “fold binding to target pHLA” value in experiment [2] was no less than 3 fold.

B8: scFv G8-P1B03 (scFv, V domains shown)
VH: EVQLLESGGGLVQPGGSLRLSCAASGFTFSDYYMSWVRQAPGKGLEWVSGINWNGGSTGYADSVKGRFTISRDNSKNTLYLQMNSLRAEDTAVYYCARVEQGYDIYYYYYMDVWGKGTTVTVSS
VL: DIQMTQSPSSLSASVGDRVTITCRASQSISSYLNWYQQKPGKAPKLLIYKASSLESGVPSRFSGSGSGTDFTLTISSLQPEDFATYYCQQSYSAPYTFGPGTKVDIK
For B8, the “fold binding to target pHLA” value in experiment [2] was no less than 3 fold.

B9: scFv R3G10-P1A07 (scFv, V domains shown)
VH: EVQLLESGGGLVKPGGSLRLSCAASGFTFSSYWMSWVRQAPGKGLEWVSGISARSGRTYYADSVKGRFTISRDDSKNTLYLQMNSLKTEDTAVYYCARDQDTIFGVVITWFDPWGQGTLVTVSS
VL: DIQMTQSPSSLSASVGDRVTITCRASQGISNYLAWYQQKPGKAPKLLIYAASSLQGGVPSRFSGSGSGTDFTLTISSLQPEDFATYYCQQYFTTPYTFGQGTKLEIK
On to B9, for which the “fold binding to target pHLA” value in experiment [1] is no less than 3 fold.

B10: scFv G8-P2E06 (scFv, V domains shown)
VH: QVQLVQSGAEVKKPGASVKVSCKASGYTLTTYYMHWVRQAPGQGLEWMGWINPNSGGTNYAQKFQGRVTMTRDTSTSTVYMELSSLRSEDTAVYYCARAVYYDFWSGPFDYWGQGTLVTVSS
VL: DIQMTQSPSSLSASVGDRVTITCRASQGISNSLAWYQQKPGKAPKLLIYAASSLQSGVPSRFSGSGSGTDFTLTISSLQPEDFATYYCQQANSFPWTFGQGTKLEIK
With B10, in experiment [2], the “fold binding to target pHLA” value was no less than 3 fold.

B11: scFv G8-P1C11 (scFv, V domains shown)
VH: QVQLVQSGAEVKKPGASVKVSCKASGGTLSSYPINWVRQAPGQGLEWMGWISTYSGHADYAQKLQGRVTMTRDTSTSTVYMELSSLRSEDTAVYYCARSYDYGDYLNFDYWGQGTLVTVSS
VL: DIQMTQSPSSLSASVGDRVTITCQASQDISNYLNWYQQKPGKAPKLLIYAASSLQSGVPSRFSGSGSGTDFTLTISSLQPEDFATYYCQQSYSIPPTFGGGTKVDIK
For B11, the “fold binding to target pHLA” value in experiment [2] is no less than 3 fold.

B12: scFv R3G8-P5C03 (scFv, V domains shown)
VH: QVQLVQSGAEVKKPGASVKVSCKASGYTFTSYYMHWVRQAPGQGLEWMGWMNPNSGNTGYAQKFQGRVTMTRDTSTSTVYMELSSLRSEDTAVYYCARGLLGFGEFLTYGMDVWGQGTLVTVSS
VL: DIQMTQSPSSLSASVGDRVTITCRASQGISNWLAWYQQKPGKAPKLLIYAASTLQSGVPSRFSGSGSGTDFTLTISSLQPEDFATYYCQQTYSTPWTFGQGTKLEIK
Regarding B12, the “fold binding to target pHLA” value in experiment [2] is no less than 3 fold.

B13: scFv R3G8-P4F05 (scFv, V domains shown)
VH: QVQLVQSGAEVKKPGASVKVSCKASGYTFSNMYLHWVRQAPGQGLEWMGWINPNTGDTNYAQTFQGRVTMTRDTSTSTVYMELSSLRSEDTAVYYCARGLYGDYFLYYGMDVWGQGTKVTVSS
VL: DIQMTQSPSSLSASVGDRVTITCRASQGISNYLAWYQQKPGKAPKLLIYAASTLQSGVPSRFSGSGSGTDFTLTISSLQPEDFATYYCQQSYSTPLTFGGGTKVEIK
B13: the “fold binding to target pHLA” value in experiment [2] is no less than 3 fold.

B14: scFv R3G8-P2C10 (scFv, V domains shown)
VH: QVQLVQSGAEVKKPGASVKVSCKASGYTFTSYYMHWVRQAPGQGLEWMGWINPYSGGTNYAQKFQGRVTMTRDTSTSTVYMELSSLRSEDTAVYYCAKGGIYYGSGSYPSWGQGTLVTVSS
VL: DIQMTQSPSSLSASVGDRVTITCRASQDVSTWLAWYQQKPGKAPKLLIYAASSLQSGVPSRFSGSGSGTDFTLTISSLQPEDFATYYCQQSHSTPQTFGQGTKVEIK
B14: the “fold binding to target pHLA” value in experiment [2] was no less than 3 fold.

B15: scFv G8-P2B05 (scFv, V domains shown)
VH: EVQLLESGGGLVQPGGSLRLSCAASGFDFSIYSMNWVRQAPGKGLEWVSAISGSGGSTYYADSVKGRFTISRDNSKNTLYLQMNSLRAEDTAVYYCASNGNYYGSGSYYNYWGQGTLVTVSS
VL: DIQMTQSPSSLSASVGDRVTITCRASQSISRWLAWYQQKPGKAPKLLIYAASSLQSGVPSRFSGSGSGTDFTLTISSLQPEDFATYYCQQYSTYPITIGQGTKVEIK
Consider B15, for which, in experiment [2], the “fold binding to target pHLA” value is no less than 3 fold.

B16: scFv R3G10-P1B07 (scFv, V domains shown)
VH: QVQLVQSGAEVKKPGASVKVSCKASGYTFTSYYMHWVRQAPGQGLEWMGIIHPGGGTTSYAQKFQGRVTMTRDTSTSTVYMELSSLRSEDTAVYYCARDKVYGDGFDPWGQGTLVTVSS
VL: DIQMTQSPSSLSASVGDRVTITCRASQSISRWLAWYQQKPGKAPKLLIFDASRLQSGVPSRFSGSGSGTDFTLTISSLQPEDFATYYCQQAEAFPYTFGQGTKVEIK
Consider B16, for which the “fold binding to target pHLA” value in experiment [1] is no less than 3 fold.

B17: scFv G8-P1H08 (scFv, V domains shown)
VH: QVQLVQSGAEVKKPGASVKVSCKASGYTFGNYFMHWVRQAPGQGLEWMGMVNPSGGSETFAQKFQGRVTMTRDTSTSTVYMELSSLRSEDTAVYYCAASTWIQPFDYWGQGTLVTVSS
VL: DIQMTQSPSSLSASVGDRVTITCRASQGINSYLAWYQQKPGKAPKLLIYDASNLETGVPSRFSGSGSGTDFTLTISSLQPEDFATYYCQQHNSYPPTFGQGTKLEIK
As to B17, in experiment [2], the “fold binding to target pHLA” value is no less than 3 fold.

B18: scFv G8-P1C01 (scFv, V domains shown)
VH: QVQLVQSGAEVKKPGASVKVSCKASGGTFSSHAISWVRQAPGQGLEWMGVIIPSGGTSYTQKFQGRVTMTRDTSTSTVYMELSSLRSEDTAVYYCARGDYYDSSGYYFPVYFDYWGQGTLVTVSS
VL: DIQMTQSPSSLSASVGDRVTITCRASQNIYTYLNWYQQKPGKAPKLLIYDASNLETGVPSRFSGSGSGTDFTLTISSLQPEDFATYYCQQANGFPLTFGGGTKVEIK
Consider B18, for which the “fold binding to target pHLA” value in experiment [2] is no less than 3 fold.

B19: scFv R3G8-P5G08 (scFv, V domains shown)
VH: QVQLVQSGAEVKKPGASVKVSCKASGYTFTSNYMHWVRQAPGQGLEWMGWMNPNSGNTGYAQKFQGRVTMTRDTSTSTVYMELSSLRSEDTAVYYCARGLYGDYFLYYGMDVWGQGTTVTVSS
VL: not shown
With B19, in experiment [2], the “fold binding to target pHLA” value was no less than 3 fold.

B20: scFv G8-P1A03 (scFv, V domains shown)
VH: QVQLVQSGAEVKKPGASVKVSCKASGGTFSRSAITWVRQAPGQGLEWMGWINPNSGATNYAQKFQGRVTMTRDTSTSTVYMELSSLRSEDTAVYYCARDDYGDYVAYFQHWGQGTLVTVSS
VL: DIQMTQSPSSLSASVGDRVTITCRASQSITSYLNWYQQKPGKAPKLLIYDASNLETGVPSRFSGSGSGTDFTLTISSLQPEDFATYYCQQNYNSVTFGQGTKLEIK
Turning to B20, the “fold binding to target pHLA” value in experiment [2] was no less than 3 fold.

B21: scFv G8-P2C11 (scFv, V domains shown)
VH: QVQLVQSGAEVKKPGASVKVSCKASGYTFTSYAMNWVRQAPGQGLEWMGWINPNSGGTNYAQKFQGRVTMTRDTSTSTVYMELSSLRSEDTAVYYCARDPFWSGHYYYYGMDVWGQGTTVTVSS
VL: not shown
B21: in experiment [2], the “fold binding to target pHLA” value is no less than 3 fold.
